Laboratory results published in publication doi:10.1101/388470 (bioRxiv, 2018).
Values belong to the binder of their own block, whether it stands above or below them.

What was measured:
[1] = molecular target: T1, Cdc45-5FLAG (S. cerevisiae), Q08032; assay: co-sedimentation; settings: remark: other sources report otherwise
T1 chain: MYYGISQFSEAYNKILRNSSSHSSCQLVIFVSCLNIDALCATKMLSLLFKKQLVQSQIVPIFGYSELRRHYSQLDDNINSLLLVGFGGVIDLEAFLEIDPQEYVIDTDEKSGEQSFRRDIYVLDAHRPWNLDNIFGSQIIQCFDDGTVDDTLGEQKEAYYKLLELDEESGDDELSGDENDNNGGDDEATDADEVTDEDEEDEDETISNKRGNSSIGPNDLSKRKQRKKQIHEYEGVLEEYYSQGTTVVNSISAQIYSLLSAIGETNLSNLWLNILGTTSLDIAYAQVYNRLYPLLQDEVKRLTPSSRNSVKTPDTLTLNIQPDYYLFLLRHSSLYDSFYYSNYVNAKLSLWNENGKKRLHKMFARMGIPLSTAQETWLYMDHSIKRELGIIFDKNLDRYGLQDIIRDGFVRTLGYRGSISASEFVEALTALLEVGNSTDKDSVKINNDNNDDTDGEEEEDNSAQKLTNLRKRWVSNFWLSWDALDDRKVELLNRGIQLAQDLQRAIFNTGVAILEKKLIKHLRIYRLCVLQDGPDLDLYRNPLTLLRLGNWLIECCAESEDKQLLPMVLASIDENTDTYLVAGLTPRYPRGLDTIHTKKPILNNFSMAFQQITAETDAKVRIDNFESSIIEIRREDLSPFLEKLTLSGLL

[2] = molecular target: the molecule itself; assay: co-sedimentation

stoichiometry N [1]: 2
B1: Cdc45-5FLAG, Q08032 1-650 (natural protein)
chain: T1 chain

B2: Psf2-5FLAG (natural protein)
chain: MSLPAHLQQTFSPEEIQFIVENEPIKIFPRITTRQKIRGDDRGTGNHTRWQLITTDDKALNNMVAMRSTEVVLWIALLLKQQSKCSIVAPQWLTTKELDRKIQYEKTHPDRFSELPWNWLVLARILFNKAKDDFHDPIHELRGKIQDLREIRQIKVLKGLKYLNESHLQLDNLSLLEINELRPFITEIMDKLREIHTASLTAGTENDEEEFNI
stoichiometry N [2]: 2
